Measured values from PMC5134833, “The amyloid-beta forming tripeptide cleavage mechanism of γ-secretase” (eLife, 2016).

Biological target: T1, γ-secretase (Homo sapiens, UniProt P49768)
T1 construct: made in house; host or cells: suspension HEK cells (Freestyle 293), transiently transfected
Assay: In vitro γ-secretase assay (purified γ-secretase in proteoliposomes cleaving recombinant C100-FLAG substrate)
Format: biochemical
Conditions: C100-FLAG 500 nM, Figure 1B, 1F
Procedure: Purified γ-secretase was incorporated into vesicles by first dissolving total brain lipid extract (1.25 mM final) in 50 mM HEPES pH 7.0, 150 mM NaCl, 0.25% CHAPSO. γ-Secretase (5–30 nM final concentration) was then added to the solution and detergent removed by mixing SM-2 biobeads (62 mg/mL) (Bio-Rad) with the lipid/detergent/enzyme solution for two hrs at 4°C. Biobeads were removed from the newly formed proteoliposomes and reactions were initiated with the addition of purified recombinant substrate C100-FLAG substrate. Reactions were quenched with SDS loading dye for western blot or centrifuged for ELISA or mass spectrometry on Aβ or AICD fragments, respectively.
For inhibition studies, tripeptide fragments or inhibitors were dissolved in DMSO prior to being diluted into the reaction buffer. The concentration of C100-FLAG used in all in vitro assays was 500 nM unless otherwise stated.
Tripeptide IC50 inhibition was fit to: vi/vo=1/(1+[I]/IC50)
Tripeptide inhibition was globally fit to the following noncompetitive equation: v= Vmax[S]/[S](1+[I]/Kii)+Km(1+[I]/Ki)
Inhibitor cross-competition was globally fit to: 1/vij=1/v0(1+[I]/Ki+[J]/Kj+[I][J]/αKiKj)

Row | Substance | inhibition of γ-secretase activity (relative potency in words)
1 | AFA: synthetic tripeptide predicted to clash with the S' pocket binding site | very weak inhibitor
2 | FAF: synthetic tripeptide of the predicted optimal binding sequence for the large-small-large S1'-S2'-S3' pockets | more potent inhibitor of γ-secretase activity than any of the naturally occurring APP-derived tripeptides
